Our source for the protease stability score values is the NTF2 design screens of Basanta et al. (2020).

The nature of this series: protease stability score; higher = more stable; yeast display proteolysis, trypsin and chymotrypsin.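 Further: relative to predicted unfolded state with 0 unfolded-like and 1 meaning tenfold more protease.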
In the case of “DHIEEDIEEAERIMKEVNHTGDWETLERNFDPNVRLDIDGRTFHGMETYTKWFREIRIEDSRVKSIELQGDKIRYDTILHGIINGKRDTVKTHLIAVKVNGRWFIKVYSLH”, the protease stability score was 1.05. In the case of “DHIEEELIRWLELLRNALETGDEELVVKLVDPRYRLIIGDKHHHGMEEWSKILKEESERVKNARIELHLRHLRLFNGQADMEVENVVRYNGVTIIIDVRIHLLKVNGRWKEREVREG”, the protease stability score was determined as 1.33. “DHKDELAHRLVEHILKLLLTGDEEHWYELLDPNVRIHINGRNSVGREEALKVIQFFWELLGVKHIELKEVRFQGDKVHSDTRLDINGVKSRVRIEVIIINGRIDEVRIDIR” yielded a protease stability score of 2.25. In the case of “DHKDELNEHIMKVWIHFLETGDEEFLYDLMDPHARLDFNGREIHGREILYEFWKRWNKRFPNRIDFLDSVRVIGDKVEMDTTLRIDGVRHETEIRIHVYDGKLKHIEYHIR” it was 1.4; in that of “DHKEARDVAQTMMHLLKHGDFEQIVRNADPNAHFVVGDKEYHGRDNLRKVLKRLHDQVDHISFRTYKVDEDTAKLDATVQINGRNYRMDVLVHFHNGRIKDLNIKVTDEDTQREADK”, 1.57.

Regarding “DHKTKMREHAVHEWFDDVITGDERRIREYADPNVRIDIDINGRHEELHGRELFSEILTRFKNVQVEIKHVNHIGDKLHIHFRVHIDGREENVIIIMHKVDGKWVTKRFIIDDA”, the protease stability score stood at 1.05.

Turning to “DHLDERAERFFLKLVENLLTGNEEIWEELIDPNMRFHAENHSDHGWEVIRRWMERLIERFDHIEIRVHRLRFQGDKVHSDVRVHYEQGDKREEINMHIIIIIINGRIHTIRLIIL”, the protease stability score was found to be 0.308. Take “DHLEDDLDHYIRVLIKSWQTGDEELTEKLIDPRVRVEVGDKEFHGRKIFSEIAVHWRIKHHTIEHINTVGDKATIHSHVVLHFDGREITTTTIYFIEKVNGKWLLKSMHIQ”: the protease stability score was 2.5. In the case of “DHLEDTFRELTRILWEALHTGDWEIRRHYADPNARFQMHINGVELRDHGMDQLSRKYEEWYRRVDHYEVRIKDRRYQGDKMIIHVHIRVKINGKEIHYDVILYIIVVNGRIEEESEEVR” it was 1.34. Consider “DHLEEDSERAKELFIKVFKTGDEHIIKEMIDPHARLDWNGQEFHGREEVTRVMHELLEEYGIKHLHVRRFKVVNGRVEIDTELRQGDYRDESIIIILKVNGKWLIHSIEFK”, for which the protease stability score came out at 2.12. Sequence “DHLEEIADKMAKDFIHIFLTGDEHLHNRLADPNVRLHVNGRDSHGRENWSRMLTQILREMRVKDIKITSSEVQGEWSVSRTRMNVDIDGKVEEIETEIIILVVNGKLESSTIVID” had a protease stability score of -0.103. “DHLEELHETITKLWLEARRTGDEHLFRELMDPHVRIHIGDFEHHGREEALKAFDDIDRHLGVKHHHVDSWHVVNGQMIIDGRLHFDGQTRKVHIDLVIIDGRIEEIREEIR” gave a protease stability score of 0.617. For “DHLHEDSKEAFHLWKELSRTGDPKEFADNVDPNVRILINGKRYHGMEHLEHLMMELGIKHSEITRIDTIGDKLHLDGHNRFNGRTVDVHILSNKINGRWVIEEVEVL”, the protease stability score is 1.14.

Sequence “DHLRELMERVLERYRRALETGNFEELRNLADPHYRVDIDGQELIGMDEYKRHLIKIKNLKIHHVEIKDVKVQGDKAHVDQEDDIEFDGRRMRLRLHYIWLKFNGRWLLHSMEVE” returned a protease stability score of 1.85. The figure for “DHLRHTVERMVLHLLRLSLTGDEEEWLKLLDPNTKLEVGDKTRHGREDVAQFLLEMRVERVEVSDYRFNNVNGVVRVEIDGHFDFEYDGKREDSRVEIYLLFEKVNGKWHLKFVKVVFK” is 1.69; for “DHMDEELKEFLRHFLEYFRTGDFDSLYKLIDPHVKSDINGQEIHGMDLQSFWHRHIRERLGVNHMHIEITEIRYINGRAEVYGKLEVNVNGKRFEHDVHMFNLKVDGKWILESLEIR” it is 2.28; for “DHMEEDVRVAVKIWEETYRTGDEQEINDLVDPNVRVNINGQDYHGRHWLRQIIIEDRRRADHIEIRIDHIEVIGDKVILRGLVIMIQGDKRFDIRMRIFDRKVNGRWHLHNLEQE” it is 2.08. Sequence “DHMERLLKHVARLFIHALHTGDESILTDLLDPNVRVHIHIGDKEIRLHGREHVRHYLEHELTHWRTEFHLTHFDIVGNKFENHTNVIIRIDGVEIRLDRRHEVVLYDGKIEEVIVRVE” gave a protease stability score of 2.37.
